In PMC11836926:

Experiments:
Assay in all cases: potentiometry
[1] = target: Asp127; settings: 298 K; 0.1 M NaClO4; none (HClO4-acidified solution titrated with 0.1 M carbonate-free NaOH under argon); free (apo) peptide
[2] = target: Cys143; settings: 298 K, 0.1 M NaClO4, none (HClO4-acidified solution titrated with 0.1 M carbonate-free NaOH under argon)
[3] = target: His323; settings: 298 K, 0.1 M NaClO4, none (HClO4-acidified solution titrated with 0.1 M carbonate-free NaOH under argon)
[4] = target: Lys70; settings: 298 K, 0.1 M NaClO4, none (HClO4-acidified solution titrated with 0.1 M carbonate-free NaOH under argon)
[5] = Cu(II)-bound, mononuclear 1:1 complex

B1: CopM MHxxH metal-binding domain peptide (CopM 113-127) (Synechocystis sp. (PCC 6803 per reference titles)) (peptide)
chain: GMMGMHQGHGMMAMD
- pKa [1]: 3.80

B2: OprC CxxxM-HxM metal-binding site model peptide (OprC 141-149 + 6Ala linker + OprC 321-326) (Pseudomonas aeruginosa) (peptide)
chain: GACPNRMDAAAAAAAADHIMD
- pKa [2, 5]: 7.49
- pKa ([2]; free (apo) peptide): 9.56
- pKa [3, 5]: 5.05
- pKa ([3]; free (apo) peptide): 6.92

B3: CopM MxxHH metal-binding domain peptide (CopM 51-75) (Synechocystis sp. (PCC 6803 per reference titles)) (peptide)
chain: EMMTPHHQDAIDMAEMALQKAEHPE
- pKa [4, 5]: 9.56
- pKa ([4]; free (apo) peptide): 9.94
